{"source": "paper PMC8056888", "about": "(Journal of Applied Glycoscience, 2017)", "key": {"Foagl1": {"system": "Foagl1", "settings": "conditions not stated for this substrate"}, "purified protein [1]": {"substrate": "O=[N+]([O-])c1ccc(O[C@H]2O[C@H](CO)[C@@H](O)[C@H](O)[C@H]2O)cc1", "test": "purified protein", "settings": "pH 6.0, sodium phosphate, 30 °C"}, "purified protein [2]": {"substrate": "CO[C@H]1O[C@H](CO)[C@@H](O)[C@H](O)[C@H]1O", "test": "purified protein", "settings": "conditions not stated for this substrate"}}, "data": [{"molecule": "CO[C@H]1O[C@H](CO)[C@@H](O)[C@H](O)[C@H]1O", "note": "[α-MG]", "values": [{"measurement": "Km", "setting": "Foagl1", "value": 24.3, "unit": "mM"}]}, {"molecule": "Agl1 (Aspergillus oryzae RIB40) (protein) MATPGNQNHRAWWKESSVYQIWPCSFKDSNDDGIGDIPGIISKLDHIKNLGIDIVWLCPSYKSPQVDMGYDIADYYDIAPEYGTVADVEKLIKGCHERGMKLLMDLVVNHTSDQHEWFKQSRSSKDNEYRNWYIWKPARYDEQGNRQPPNNWVSHFQGSAWEWDEHTQEYYLHLYATEQPDLNWEHPPVRKAVHDIMRFWLDKGANGFRMDVINFISKDQRFPDAPIKDPRTPWQWGDKYYANGPRLHEYFQELGKILKEYDTFSVGEMPFVTDTEEVLRAVKYDRNELNMIFNFEHVDIDHGKYDKFEPGSWELTDLKFFFERWQKFMYENDGWNALYWENHDQPRSVDRYTNAKEEDRVIASKMLATILALKAGSPFVYQGQEIGMGNVPPEWDIEEYKDIDCLNHWKRLPNDPEIQKIARQEYQKKSRDNGRTPVQWTNAPNAGFTSPNVKPWMSVNPNYARGINAEAQVNDPNSTYSYWASVLGLRKKYVDIFVYGNYELVDRDSQEIFAYTRQYEDQKALVLANWTDGTLEWDSSSNGVKAVKDVLLNTYDSASDVKERFSGSKWSLRPYEAVVLLIEA", "values": [{"measurement": "Km", "setting": "purified protein [1]", "value": 8.3, "unit": "mM"}, {"measurement": "kcat", "setting": "purified protein [1]", "value": 17.5, "unit": "s⁻¹"}, {"measurement": "kcat/Km", "setting": "purified protein [1]", "value": 2120, "unit": "M⁻¹ s⁻¹"}, {"measurement": "Km", "setting": "purified protein [2]", "value": 31.3, "unit": "mM"}]}, {"molecule": "AgdC (Aspergillus niger CBS 513.88) (protein) MAKSASQIHRAWWKECSVYQIWPASYKDSNDDGIGDIPGIISKLDYIKNIGVDIVWLCPSYKSPQVDMGYDIADYYSIADEYGTVADVEKLIQGCHERGMKLLMDLVVNHTSDQNEWFKQSRSSKDNKYRNWYVWKPARYDEQGNRHPPNNWVSHFQGSAWEWDEHTGEYYLHLYATEQPDLNWEHPPVRKAVHDIMRFWLDKGADGFRMDVINFISKDQRFPDAPVKDPRTPWQWGDKYYANGPRLHEYLQDLGKILKEYDAFSVGEMPFVRDTEEVLRAVRYDRNEINMIFNFEHVDIDHGTYDKFEPGSWKLTDLKAFFETWQKFMYNNDGWNALYWENHDQPRSIDRYAQAKEEFRTEAGKMLATVLALQSGTPFVYQGQEIGMRNVPVEWDMNEYKDIDCLNHWHRLLKHRPDDIEAQKSARQEYQKKSRDNGRTPVQWSSAPNGGFTGPNAKPWMSVSPDYVRFNAEAQVNDPNSIYHYWAAVLGLRKKYLDIFVYGDYDLVDKDSQEIFAYARQYENKKALVLTNWTEKTLEWDATTNGVKGVKDVLLNSYESAEAAKGRFSGQKWSLRPYEAVVLLVEA", "values": [{"measurement": "Km", "setting": "purified protein [1]", "value": 7.8, "unit": "mM"}, {"measurement": "kcat", "setting": "purified protein [1]", "value": 19.8, "unit": "s⁻¹"}, {"measurement": "Km", "setting": "purified protein [2]", "value": 32.8, "unit": "mM"}, {"measurement": "kcat", "setting": "purified protein [2]", "value": 5.0, "unit": "s⁻¹"}]}]}
